Assay results as given in patent publication US20220204580A1 (AstraZeneca / MedImmune, published 2022).
Numbered stars: 1 amine (or outer) side, 2 acyl side, 3 side chain; on linkers, the order of the positions; unused ones are H or OH. Bridge positions count the residues as written; N and C are the ends. Square brackets hold non-standard residues; d marks the D form. Side chains are listed from the residue outwards. Ends that are not written are not given here. * marks the point of attachment. C20 diacid = O=C(O)CCCCCCCCCCCCCCCCCCC(=O)*; C18 diacid = O=C(O)CCCCCCCCCCCCCCCCC(=O)*; γGlu = O=C(O)[C@H](CCC(=O)[*:2])N[*:1]; αMeF = C[C@](N)(Cc1ccccc1)C(=O)O; Aib = CC(C)(N)C(=O)O

T1: human calcitonin receptor (human, UniProt P30988 25-474)
T1 sequence (looked up): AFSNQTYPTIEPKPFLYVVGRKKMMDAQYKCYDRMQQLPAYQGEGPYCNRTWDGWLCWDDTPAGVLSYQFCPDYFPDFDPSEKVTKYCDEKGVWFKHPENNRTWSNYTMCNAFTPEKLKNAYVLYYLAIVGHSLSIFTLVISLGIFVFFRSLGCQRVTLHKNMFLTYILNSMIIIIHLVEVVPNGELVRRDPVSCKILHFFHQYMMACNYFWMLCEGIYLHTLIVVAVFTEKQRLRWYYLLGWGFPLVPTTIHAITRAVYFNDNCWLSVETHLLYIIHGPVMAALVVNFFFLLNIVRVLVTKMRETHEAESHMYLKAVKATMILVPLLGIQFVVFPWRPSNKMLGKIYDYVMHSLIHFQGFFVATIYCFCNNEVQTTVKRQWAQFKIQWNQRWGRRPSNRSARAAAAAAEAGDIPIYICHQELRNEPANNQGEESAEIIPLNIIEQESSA

T2: human amylin receptor (calcitonin receptor co-expressed with receptor activity modifying protein, RAMP3) (human, UniProt P30988 25-474; O60896 24-148)
T2 sequence (looked up) 1: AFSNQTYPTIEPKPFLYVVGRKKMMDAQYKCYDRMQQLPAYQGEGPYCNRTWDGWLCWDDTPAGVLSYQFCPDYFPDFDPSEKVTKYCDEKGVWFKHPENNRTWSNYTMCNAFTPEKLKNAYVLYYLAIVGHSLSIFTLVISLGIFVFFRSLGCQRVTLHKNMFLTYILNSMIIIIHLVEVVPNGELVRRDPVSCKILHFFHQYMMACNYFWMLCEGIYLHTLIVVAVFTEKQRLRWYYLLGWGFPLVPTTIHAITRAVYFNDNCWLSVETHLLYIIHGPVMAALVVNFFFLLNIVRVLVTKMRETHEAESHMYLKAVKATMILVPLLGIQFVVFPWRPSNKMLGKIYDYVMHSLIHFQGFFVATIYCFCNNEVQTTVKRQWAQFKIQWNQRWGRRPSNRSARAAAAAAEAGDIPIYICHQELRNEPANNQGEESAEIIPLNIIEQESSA
T2 sequence (looked up) 2: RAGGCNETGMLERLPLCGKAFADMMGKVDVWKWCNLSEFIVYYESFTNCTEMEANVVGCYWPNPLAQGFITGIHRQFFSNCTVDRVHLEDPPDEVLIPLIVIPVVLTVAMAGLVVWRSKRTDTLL

B1: Peptide 108 (SEQ ID NO: 108) (peptide)
peptide: K([γGlu-C18 diacid])KCNTATCATQRLANFLVHSSNNFGPI[Aib]PPTNVGSNTY-NH2
modifications: disulfide 3-8; N-terminus assumed
SMILES: CC[C@H](C)[C@H](NC(=O)[C@@H]1CCCN1C(=O)CNC(=O)[C@H](Cc1ccccc1)NC(=O)[C@H](CC(N)=O)NC(=O)[C@H](CC(N)=O)NC(=O)[C@H](CO)NC(=O)[C@H](CO)NC(=O)[C@H](Cc1c[nH]cn1)NC(=O)[C@@H](NC(=O)[C@H](CC(C)C)NC(=O)[C@H](Cc1ccccc1)NC(=O)[C@H](CC(N)=O)NC(=O)[C@H](C)NC(=O)[C@H](CC(C)C)NC(=O)[C@H](CCCNC(=N)N)NC(=O)[C@H](CCC(N)=O)NC(=O)[C@@H](NC(=O)[C@H](C)NC(=O)[C@@H]1CSSC[C@H](NC(=O)[C@H](CCCCN)NC(=O)[C@@H](N)CCCCNC(=O)CC[C@H](NC(=O)CCCCCCCCCCCCCCCCC(=O)O)C(=O)O)C(=O)N[C@@H](CC(N)=O)C(=O)N[C@@H]([C@@H](C)O)C(=O)N[C@@H](C)C(=O)N[C@@H]([C@@H](C)O)C(=O)N1)[C@@H](C)O)C(C)C)C(=O)NC(C)(C)C(=O)N1CCC[C@H]1C(=O)N1CCC[C@H]1C(=O)N[C@H](C(=O)N[C@@H](CC(N)=O)C(=O)N[C@H](C(=O)NCC(=O)N[C@@H](CO)C(=O)N[C@@H](CC(N)=O)C(=O)N[C@H](C(=O)N[C@@H](Cc1ccc(O)cc1)C(N)=O)[C@@H](C)O)C(C)C)[C@@H](C)O
B2: Peptide 109 (SEQ ID NO: 109) (peptide)
peptide: K([γGlu-C18 diacid])KCNTATCATQRLANFLVHSSN[Aib]FGPILPPTNVGSNTY-NH2
modifications: disulfide 3-8; N-terminus assumed
SMILES: CC[C@H](C)[C@H](NC(=O)[C@@H]1CCCN1C(=O)CNC(=O)[C@H](Cc1ccccc1)NC(=O)C(C)(C)NC(=O)[C@H](CC(N)=O)NC(=O)[C@H](CO)NC(=O)[C@H](CO)NC(=O)[C@H](Cc1c[nH]cn1)NC(=O)[C@@H](NC(=O)[C@H](CC(C)C)NC(=O)[C@H](Cc1ccccc1)NC(=O)[C@H](CC(N)=O)NC(=O)[C@H](C)NC(=O)[C@H](CC(C)C)NC(=O)[C@H](CCCNC(=N)N)NC(=O)[C@H](CCC(N)=O)NC(=O)[C@@H](NC(=O)[C@H](C)NC(=O)[C@@H]1CSSC[C@H](NC(=O)[C@H](CCCCN)NC(=O)[C@@H](N)CCCCNC(=O)CC[C@H](NC(=O)CCCCCCCCCCCCCCCCC(=O)O)C(=O)O)C(=O)N[C@@H](CC(N)=O)C(=O)N[C@@H]([C@@H](C)O)C(=O)N[C@@H](C)C(=O)N[C@@H]([C@@H](C)O)C(=O)N1)[C@@H](C)O)C(C)C)C(=O)N[C@@H](CC(C)C)C(=O)N1CCC[C@H]1C(=O)N1CCC[C@H]1C(=O)N[C@H](C(=O)N[C@@H](CC(N)=O)C(=O)N[C@H](C(=O)NCC(=O)N[C@@H](CO)C(=O)N[C@@H](CC(N)=O)C(=O)N[C@H](C(=O)N[C@@H](Cc1ccc(O)cc1)C(N)=O)[C@@H](C)O)C(C)C)[C@@H](C)O
B3: Peptide 110 (SEQ ID NO: 110) (peptide)
peptide: K([γGlu-C18 diacid])KCNTATCATQRLANFLVHSSNNF[Aib]PILPPTNVGSNTY-NH2
modifications: disulfide 3-8; N-terminus assumed
SMILES: CC[C@H](C)[C@H](NC(=O)[C@@H]1CCCN1C(=O)C(C)(C)NC(=O)[C@H](Cc1ccccc1)NC(=O)[C@H](CC(N)=O)NC(=O)[C@H](CC(N)=O)NC(=O)[C@H](CO)NC(=O)[C@H](CO)NC(=O)[C@H](Cc1c[nH]cn1)NC(=O)[C@@H](NC(=O)[C@H](CC(C)C)NC(=O)[C@H](Cc1ccccc1)NC(=O)[C@H](CC(N)=O)NC(=O)[C@H](C)NC(=O)[C@H](CC(C)C)NC(=O)[C@H](CCCNC(=N)N)NC(=O)[C@H](CCC(N)=O)NC(=O)[C@@H](NC(=O)[C@H](C)NC(=O)[C@@H]1CSSC[C@H](NC(=O)[C@H](CCCCN)NC(=O)[C@@H](N)CCCCNC(=O)CC[C@H](NC(=O)CCCCCCCCCCCCCCCCC(=O)O)C(=O)O)C(=O)N[C@@H](CC(N)=O)C(=O)N[C@@H]([C@@H](C)O)C(=O)N[C@@H](C)C(=O)N[C@@H]([C@@H](C)O)C(=O)N1)[C@@H](C)O)C(C)C)C(=O)N[C@@H](CC(C)C)C(=O)N1CCC[C@H]1C(=O)N1CCC[C@H]1C(=O)N[C@H](C(=O)N[C@@H](CC(N)=O)C(=O)N[C@H](C(=O)NCC(=O)N[C@@H](CO)C(=O)N[C@@H](CC(N)=O)C(=O)N[C@H](C(=O)N[C@@H](Cc1ccc(O)cc1)C(N)=O)[C@@H](C)O)C(C)C)[C@@H](C)O
B4: Peptide 111 (SEQ ID NO: 111) (peptide)
peptide: K([γGlu-C18 diacid])KCNTATCATQRLANFLVHSSNHFGPILPPTNVGSETY-NH2
modifications: disulfide 3-8; N-terminus assumed
SMILES: CC[C@H](C)[C@H](NC(=O)[C@@H]1CCCN1C(=O)CNC(=O)[C@H](Cc1ccccc1)NC(=O)[C@H](Cc1c[nH]cn1)NC(=O)[C@H](CC(N)=O)NC(=O)[C@H](CO)NC(=O)[C@H](CO)NC(=O)[C@H](Cc1c[nH]cn1)NC(=O)[C@@H](NC(=O)[C@H](CC(C)C)NC(=O)[C@H](Cc1ccccc1)NC(=O)[C@H](CC(N)=O)NC(=O)[C@H](C)NC(=O)[C@H](CC(C)C)NC(=O)[C@H](CCCNC(=N)N)NC(=O)[C@H](CCC(N)=O)NC(=O)[C@@H](NC(=O)[C@H](C)NC(=O)[C@@H]1CSSC[C@H](NC(=O)[C@H](CCCCN)NC(=O)[C@@H](N)CCCCNC(=O)CC[C@H](NC(=O)CCCCCCCCCCCCCCCCC(=O)O)C(=O)O)C(=O)N[C@@H](CC(N)=O)C(=O)N[C@@H]([C@@H](C)O)C(=O)N[C@@H](C)C(=O)N[C@@H]([C@@H](C)O)C(=O)N1)[C@@H](C)O)C(C)C)C(=O)N[C@@H](CC(C)C)C(=O)N1CCC[C@H]1C(=O)N1CCC[C@H]1C(=O)N[C@H](C(=O)N[C@@H](CC(N)=O)C(=O)N[C@H](C(=O)NCC(=O)N[C@@H](CO)C(=O)N[C@@H](CCC(=O)O)C(=O)N[C@H](C(=O)N[C@@H](Cc1ccc(O)cc1)C(N)=O)[C@@H](C)O)C(C)C)[C@@H](C)O
B5: Peptide 117 (SEQ ID NO: 117) (peptide)
peptide: K([γGlu-γGlu-C20 diacid])CNTATCATQRLANFLVHSS[Aib]NFPAILSPTNVGSNTY-NH2
modifications: disulfide 2-7; N-terminus assumed
SMILES: CC[C@H](C)[C@H](NC(=O)[C@H](C)NC(=O)[C@@H]1CCCN1C(=O)[C@H](Cc1ccccc1)NC(=O)[C@H](CC(N)=O)NC(=O)C(C)(C)NC(=O)[C@H](CO)NC(=O)[C@H](CO)NC(=O)[C@H](Cc1c[nH]cn1)NC(=O)[C@@H](NC(=O)[C@H](CC(C)C)NC(=O)[C@H](Cc1ccccc1)NC(=O)[C@H](CC(N)=O)NC(=O)[C@H](C)NC(=O)[C@H](CC(C)C)NC(=O)[C@H](CCCNC(=N)N)NC(=O)[C@H](CCC(N)=O)NC(=O)[C@@H](NC(=O)[C@H](C)NC(=O)[C@@H]1CSSC[C@H](NC(=O)[C@@H](N)CCCCNC(=O)CC[C@H](NC(=O)CC[C@H](NC(=O)CCCCCCCCCCCCCCCCCCC(=O)O)C(=O)O)C(=O)O)C(=O)N[C@@H](CC(N)=O)C(=O)N[C@@H]([C@@H](C)O)C(=O)N[C@@H](C)C(=O)N[C@@H]([C@@H](C)O)C(=O)N1)[C@@H](C)O)C(C)C)C(=O)N[C@@H](CC(C)C)C(=O)N[C@@H](CO)C(=O)N1CCC[C@H]1C(=O)N[C@H](C(=O)N[C@@H](CC(N)=O)C(=O)N[C@H](C(=O)NCC(=O)N[C@@H](CO)C(=O)N[C@@H](CC(N)=O)C(=O)N[C@H](C(=O)N[C@@H](Cc1ccc(O)cc1)C(N)=O)[C@@H](C)O)C(C)C)[C@@H](C)O

How the values were obtained:
[1] = biological target: T1, human calcitonin receptor; assay: cell-based or functional assay
[2] = biological target: T2, human amylin receptor (calcitonin …); assay: cell-based or functional assay

Row | Binder | EC50 (cAMP production) [1] | EC50 (cAMP production) [2] | Ratio (EC50 hCTR / EC50 hAMYR3) [2]
1 | B1 | 6.81 nM | 0.801 nM | 8
2 | B2 | 0.176 nM | 0.082 nM | 2
3 | B3 | 0.541 nM | 0.204 nM | 3
4 | B4 | 1.88 nM | 0.403 nM | 5
5 | B5 | 3.19 nM | 0.77 nM | 4
6 | K([γGlu-γGlu-C18 diacid])CNTATCATQRLANFLVHSSNN[αMeF]GPILPPTNVGSNTY-NH2 (disulfide 2-7) [Peptide 13 (SEQ ID NO: 13)] | 2.04 nM | 0.196 nM | 10
